What was measured:
human EGF receptor [1] = molecular target: T1, human EGF receptor (human, UniProt P00533 25-1210); assay: GST pull-down from Sf9 lysates, receptor blot
Description: (§1) For pull-down experiments receptors were expressed in Sf9 insect cells, cleared lysates were incubated for 1.5 hours with 3 μg immobilized GST or GST-32, and beads were washed as previously described (Carraway, K. L., III, et al., Nature, 387:512-16 (1997)). MDA-MB-453 cells were treated for 5 minutes without or with 10 nM NRG1β, lysed as previously described (Sweeney, C., et al., J. Biol. Chem., 275:19803-07 (2000)), and cleared lysates were incubated with GST and GST-32 as above. Precipitated proteins were resolved by 8% SDS-PAGE, transferred to nitrocellulose and visualized by blotting with anti-phosphotyrosine (RC20, Transduction Laboratories) or anti-receptor antibodies.
(§2) To confirm the specificity of the interaction we employed a GST fusion of clone 32 in receptor pull-down experiments. A GST fusion of clone 32 was used instead of full-length Nrdp1 because we observed that GST-Nrdp1 is insoluble in bacteria. We have expressed each of the ErbB family members in Sf9 cells (Carraway, K. L., III, et al., Nature, 387:512-16 (1997)), incubated cleared lysates with immobilized GST or GST-32, and analyzed associated receptors by blotting precipitates with receptor-specific antibodies. We again observed that clone 32 is capable of physically interacting with ErbB3 and ErbB4, but not EGF receptor or ErbB2.

human ErbB2 [2] = molecular target: T2, human ErbB2 (human, UniProt P04626 23-1255); assay: GST pull-down from Sf9 lysates, receptor blot
Description: as §1, §2

human EGF receptor [3] = molecular target: T1, human EGF receptor; assay: co-immunoprecipitation from co-infected Sf9 cells, anti-FLAG blot
Description: (§3) Baculovirus encoding Nrdp1 tagged at its amino terminus with FLAG epitope was created as described previously (Guy, P. M., et al., Proc. Natl. Acad. Sci USA., 91:8132-36 ((1994)). Baculoviruses encoding human EGF receptor, human ErbB2, bovine ErbB3 or human ErbB4 have been described previously (Carraway, K. L., III, et al., Nature, 387:512-16 (1997)). For co-immunoprecipitation experiments Sf9 cells were infected with receptor viruses and co-infected either wild type or Nrdp1 baculovirus. 48 hours after infection cleared NP-40 lysates were immunoprecipitated with receptor antibodies and blotted with antibodies directed to receptors or FLAG epitope as described above.

human ErbB2 [4] = molecular target: T2, human ErbB2; assay: as above
Description: as §3

B1: GST fusion protein of clone 32 encompassing Nrdp1 residues I135 to I317 (other)
chain: IKHLRSVVQQQQTRIAELEKTSAEHKHQLAEQKRDIQLLKAYMRAIRSVNPNLQNLEETIEYNEILEWVNSLQPARVTRWGGMISTPDAVLQAVIKRSLVESGCPASIVNELIENAHERSWPQGLATLETRQMNRRYYENYVAKRIPGKQAVVVMACENQHMGDDMVQEPGLVMIFAHGVEEI
notes: Expressed in bacteria and immobilized on beads (3 ug) for the pull-downs; also called GST-32; GST fusion of clone 32; not shown: glutathione S-transferase encoded by the pGEX vector
- binding result (human EGF receptor [1]): no binding (tested: 3 ug immobilized GST-32)
- binding result (human ErbB2 [2]): no binding (tested: 3 ug immobilized GST-32)

B2: Nrdp1 tagged at its amino terminus with FLAG epitope (baculovirus, Sf9 insect cells) (other)
chain: DYKDDDDKMGYDVTRFQGDVDEDLICPICSGVLEEPVQAPHCEHAFCNACITQWFSQQQTCPVDRSVVTVAHLRPVPRIMRNMLSKLQIACDNAVFGCSAVVRLDNLMSHLSDCEHNPKRPVTCEQGCGLEMPKDELPNHNCIKHLRSVVQQQQTRIAELEKTSAEHKHQLAEQKRDIQLLKAYMRAIRSVNPNLQNLEETIEYNEILEWVNSLQPARVTRWGGMISTPDAVLQAVIKRSLVESGCPASIVNELIENAHERSWPQGLATLETRQMNRRYYENYVAKRIPGKQAVVVMACENQHMGDDMVQEPGLVMIFAHGVEEI
notes: Construct used for the Sf9 co-immunoprecipitations; also called FLAG-Nrdp1; neuregulin receptor degradation protein-1
- binding result (human EGF receptor [3]): no binding
- binding result (human ErbB2 [4]): no binding
